Data on 3 molecules can be found in patent US20180346555A1 (Regeneron, published 2018).

Test [1] concerns the target T1, natural Bet v 1 (Betula verrucosa (Betula pendula), UniProt P15494 2-160).
T1 construct: Bought natural protein; also called nBet v 1
T1 chain: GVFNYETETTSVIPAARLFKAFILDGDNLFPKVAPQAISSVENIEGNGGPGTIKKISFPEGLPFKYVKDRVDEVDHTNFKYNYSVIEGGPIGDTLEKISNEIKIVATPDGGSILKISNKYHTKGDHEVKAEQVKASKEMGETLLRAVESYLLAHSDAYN
Briefly: SPR Biacore 4000, mAb captured on anti-human Fc, 37C. (In general: In SPR one partner is held on a chip, and binding of the other changes the refractive index at the surface.)

Test [2] deals with T1, natural Bet v 1. Briefly: cell-based or functional assay.
Test [3] has as its target T1, natural Bet v 1. The test can be described thus: SPR Biacore 4000, mAb captured on anti-human Fc, 25C.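 Further: purified anti-Bet v 1 mAbs probed with natural Bet v 1 in HBS-ET buffer (HEPES, NaCl, EDTA, Tween-20) at pH 7.4.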
Test [4] deals with T2, natural Bet v 1 (Indoor Biotechnologies, # NA-BV1-1) (Betula verrucosa (Betula pendula), UniProt P15494 2-160, biotin labeled in the IgE blocking ELISA (Tables 12-14); unlabeled in the SPR of Table 18).
T2 construct: Bought natural allergen purified from birch pollen; also called nBet v 1; Biotinylated Bet v 1
T2 chain: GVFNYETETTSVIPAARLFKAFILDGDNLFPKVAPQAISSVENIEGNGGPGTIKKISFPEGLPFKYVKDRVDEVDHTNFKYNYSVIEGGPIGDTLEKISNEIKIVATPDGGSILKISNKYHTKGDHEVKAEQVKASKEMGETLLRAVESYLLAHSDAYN
Briefly: blocking ELISA, captured IgE of donor 23939-MH, 1 ug/mL each antibody. Background: An ELISA detects its analyte on a solid surface through an enzyme-linked reagent.

In test [5] the target is T2, natural Bet v 1 (Indoor …). The test can be described thus: blocking ELISA, captured IgE of donor 29718-MW, 1 ug/mL each antibody.
Test [6] deals with T2, natural Bet v 1 (Indoor …). Briefly: blocking ELISA, captured IgE of donor 25609-MS, 1 ug/mL each antibody.
Test [7] addresses T2, natural Bet v 1 (Indoor …). The test can be described thus: blocking ELISA, captured IgE of donor 25299-RJ, 1 ug/mL each antibody.
The target in test [8] is T2, natural Bet v 1 (Indoor …). The test can be described thus: blocking ELISA, captured IgE of donor 26532-CC, 1 ug/mL each antibody.
Test [9] has as its target T2, natural Bet v 1 (Indoor …). Briefly: blocking ELISA, captured IgE of donor 23035-BL, 1 ug/mL each antibody.
Test [10] has as its target T2, natural Bet v 1 (Indoor …). Briefly: dose-response blocking ELISA, captured IgE of donor 25340-RR, at 1 ug/mL each antibody.
Test [11] has as its target T2, natural Bet v 1 (Indoor …). Briefly: blocking ELISA, captured IgE of donor 25414-CW, 1 ug/mL each antibody.
The target of test [12] is T2, natural Bet v 1 (Indoor …). The test can be described thus: dose-response blocking ELISA, captured IgE of donor 23939-MH, at 1 ug/mL each antibody.
The target in test [13] is T2, natural Bet v 1 (Indoor …). Briefly: dose-response blocking ELISA, captured IgE of donor 25609-MS, at 1 ug/mL each antibody.
Test [14] addresses T2, natural Bet v 1 (Indoor …). The test can be described thus: blocking ELISA, captured IgE of donor 25340-RR, 1 ug/mL each antibody.
In test [15] the target is T2, natural Bet v 1 (Indoor …). The test can be described thus: blocking ELISA, captured IgE of donor 22627-MN, 1 ug/mL each antibody.
In test [16] the target is T2, natural Bet v 1 (Indoor …). The test can be described thus: blocking ELISA, captured IgE of donor 23658-MD, 1 ug/mL each antibody.
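Wherever t½ is given: kinetic rate constants from SPR sensorgrams fitted to a 1:1 model with mass transport limitation, HBS-ET buffer pH 7.4, KD and t½ derived from the rate constants.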

B1: H4H17082P2 (antibody, human IgG4 S228P, kappa, V domains shown)
VH: QVQLVQSGAEVKKPGASVKVSCKASGYTFISYNIFWVRQATGQGLDWMGWMNPFRNNAGYAQKFQGRVTVTWDTSISTAYMELSSLSSEDTAIYYCAREHGSSWGFFDYWGQGTLVTVSS
VL: not shown
notes: Human IgG4; also called REGN5715; MAB2
Take B1: in [1], the “100 nM natural Bet v 1 Bound (RU)” value was determined as 83 RU, the Kd (usually the concentration at which binding is half-saturated) turned out to be 2.43 nM and the t½ (usually how long it takes for the measured level to halve) was determined as 6.3 min. The “blockade of basophil activation (phospho-Erk MFI in basophils of PBMCs from birch allergic donors, 100 pM natural Bet v 1)” value in test [2] was found to be 70%. For the same molecule, in test [3], the “100 nM natural Bet v 1 Bound (RU)” value was 72 RU and the Kd was 1.09 nM.

B2: H4H17082P2 (antibody, human IgG4 S228P, kappa, V domains shown)
VH: QVQLVQSGAEVKKPGASVKVSCKASGYTFISYNIFWVRQATGQGLDWMGWMNPFRNNAGYAQKFQGRVTVTWDTSISTAYMELSSLSSEDTAIYYCAREHGSSWGFFDYWGQGTLVTVSS
VL: not shown
notes: human IgG4; also called REGN5715; MAB2
On to B2, for which the “Percent Blocking” value in [4] was 79%; in test [5], 49%; in [6] it was 51%; in test [7], 66%; in [8], 74%; in [9], 52%. Moreover, the “Percent Blocking” value in test [10] was found to be 82.7%; in test [11], 38%; in test [12] it was 82.9%; in [13] it was 56.4%; in test [14], 81%.

B3: H4H16987P (antibody, human IgG4 S228P, kappa, V domains shown)
VH: EVQLVESGGGLVQPGGSLRLSCAASGFTVSSNSMSWVRQAPGEGLEWVSVIFSGGITYYSDSVKGRFTISRHNSKNTLYLQMNSLRTEDTAVYYCARHSNWNFDAFDIWGQGTMVTVSS
VL: DIQMTQSPSSLSASVGDRVTITCRASQSFDTYLNWYQQKPGKAPNLLIYATSSLQSGVPSRFSGSGSGTDFTLTISSLQPEDFGTYYCQQSYSIPYTFGQGTKLEIKR
notes: human IgG4; also called MAB4
On to B3, for which the “Percent Blocking” value in [4] worked out at 16%; in [15], 12%; in [5], 13%; in test [6] it was 16%; in test [7] it was 9%; in test [8], 4%. Moreover, the “Percent Blocking” value in test [9] was -46%; in test [10] it was 11.1%; in test [16] it was 27%; in test [11] it was -4%; in [12] it was 19.6%; in test [13], 21.6%. Further, the “Percent Blocking” value in test [14] is 15%.
